The values below are quoted from earlier work in publication PMC3046808.

The target of the series is Gag (Human immunodeficiency virus 1) (UniProt O93182).

Gag, sequence (O93182 2-500): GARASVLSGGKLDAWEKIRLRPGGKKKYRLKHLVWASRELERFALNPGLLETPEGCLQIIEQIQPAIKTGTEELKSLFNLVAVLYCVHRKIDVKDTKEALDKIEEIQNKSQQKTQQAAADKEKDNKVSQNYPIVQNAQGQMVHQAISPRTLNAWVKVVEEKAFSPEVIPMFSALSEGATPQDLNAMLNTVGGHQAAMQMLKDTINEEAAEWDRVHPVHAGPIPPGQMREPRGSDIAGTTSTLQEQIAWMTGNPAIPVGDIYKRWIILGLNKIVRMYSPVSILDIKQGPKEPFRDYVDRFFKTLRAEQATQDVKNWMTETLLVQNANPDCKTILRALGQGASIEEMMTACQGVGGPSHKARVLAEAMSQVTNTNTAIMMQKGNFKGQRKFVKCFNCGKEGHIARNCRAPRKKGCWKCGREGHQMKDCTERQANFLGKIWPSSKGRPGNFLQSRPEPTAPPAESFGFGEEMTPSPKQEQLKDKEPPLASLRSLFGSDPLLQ

Turning to Gag (from UniProt O93182), the Kd – broadly, the free concentration of one partner at which half of the binding sites on the other are occupied at equilibrium, for simple one-to-one binding – is 3.9 µM.
